“Also recorded” adds a separate entry of the source. Ends that are not written are not given here.
Legend:
RAGE = target: T1, RAGE (Mus musculus, UniProt Q62151); test: Ang II-induced ICAM-1 gene expression in murine SVEC; format: cell-based; details: murine SVEC endogenously replete in RAGE; transfected constructs; 1 μM Ang II; FIG. 12A, 12B, 12D
T1 construct: in murine SVEC that are endogenously replete in RAGE expression; host or cells: Svec4-10 mouse endothelial cells
Description: To explore the potential for RAGE constructs to inhibit transactivation of endogenous RAGE, additional experiments were conducted in immortalized mouse endothelial cells (Svec4-10, ATCC) cultured in 10% FBS/DMEM with 25 mM glucose were used. SVEC were transfected with truncated RAGE constructs using Lipofectamine 2000 (Invitrogen) as per manufacturer's instructions, or treated with RAGE oligopeptides (280 μM). Cells were allowed to recover in media containing 10% FBS for 16 hours prior to treatment with 1 μM Ang II.

[1] = system: primary murine aortic endothelial cells (PMAEC); test: Expression of pro-inflammatory markers by real-time RT-PCR in primary murine aortic endothelial cells; format: cell-based, mouse
Description: Primary aortic endothelial cells (PMAEC) were isolated from the aortae of (wild-type) C57bl6 mice and AGER KO mice and cultured in Dulbecco's modified Eagle's medium (DMEM)/F12 endothelial cell growth supplement (ECGS) supplemented media. Chinese Hamster Ovary (CHO) cells were cultured using F12 media (10% FCS with 2 mM glutamine). Human microvascular endothelial cells (HMEC) were cultured in MCDB 131 medium (10% FCS with 10 mM glutamine, EGF and hydrocortisone).
(§1) Cellular Expression of Pro-Inflammatory Markers and Mediators by Quantitative Real-Time PCR
(§2) After 2 hours of exposure to Ang II (1 μM) or the RAGE ligand, S100A8/A9 (5 ng/ml) cells were placed in Trizol, mRNA extracted and cDNA synthesized. Changes in the gene expression of the NFκB subunit, p65 (RelA) or NFκB-activated target genes (e.g ICAM-1, VCAM-1) were estimated by quantitative real-time RT-PCR, performed using the TaqMan system based on real-time detection of accumulated fluorescence (ABI Prism 7700, Perkin-Elmer Inc, PE Biosystems, Foster City, CA, USA). Gene expression was normalized to 18S mRNA and reported as fold change compared to the level of expression in untreated control mice/cells, which were given an arbitrary value of 1.
Selective Silencing of Gene Expression Using siRNA
PMAEC from C57b/6 mice were also transfected with siRNA to RAGE (2 nM) Ambion, ID:s62119), p65 (RelA) (10 nM; Ambion, ID:s72857), MyD88 (10 nM; Ambion. ID:s201719), PKCζ (10 nM; Ambion, ID:s71716), IQGAP-1, Ambion, ID:s78119), Diaph1 (10 nM; sense5′-[…], antisense 3′-[…]; Invitrogen) or scrambled control #1 (2 nM or 10 nM; Ambion) using Lipofectamine RNAiMAX (Invitrogen) as per manufacturer's instructions. Cells were allowed to recover in media containing 10% FBS for 16 hours prior to treatment with 1 μM Ang II or 5 ng/ml of the RAGE ligand, S100A8/A9, as a signalling control.

[2] = system: RAGE ligand-dependent activation of RAGE; test: S100A8/A9-induced NFκB activation (p65 gene expression) in CHO cells expressing RAGE constructs; format: cell-based, human
Description: (§3) Generation of Transgenic Chinese Hamster Ovary Cells
(§4) 100 ng of AT1R-Rluc8 construct was transfected into CHO cells using Lipofectamine 2000 (Thermo). Stable transfectants were selected using G418. AT1R—CHO were then transiently transfected with RAGE constructs using Lipofectamine 2000 (Invitrogen) and incubated for 16 h. The Homo sapiens AGER transcript variant 1 coding sequence (NM_001136) was synthesised and cloned between the NheI and XbaI sites of pCIneo (Promega) to generate the vector pCIneo-RAGE. This plasmid was then used to generate a library of mutant AGER clones (NP_001127). Primers 1-RAGE-SP-5′ and mCherry-XhoI-NotI-3′ were used to amplify the coding sequence of mCherry from the vector pmCherry-C1. The resultant PCR product was then used as template for a second PCR using primers 2-RAGE-SP-5′ and mCherry-XhoI-NotI-3′. The PCR product generated was digested with NheI and NotI and inserted between the NheI and NotI sites of pCIneo to generate pCIneo-SP-mCherry. The sequence of the insert was confirmed by DNA sequencing (Micromon, Monash University). […]
as §1, §2
To measure the induction of NFκB activity by 1 μM Ang II, or 5 ng/ml of the RAGE-ligand S100A8/A9 as a signalling control, AT1R—CHO cells were transfected with 0.4 μg of plasmids encoding NFκB-SEAP or β-galactosidase (β-Gal) using Lipofectamine 2000 (Invitrogen) as per manufacturer's instructions. After 24 hours, cells transfected with each plasmid combination were then treated with Ang II (1 μM) or left untreated and incubated for 4 hours before cell supernatants and cell lysates were collected. Cell supernatants were analysed using a chemiluminescent SEAP reporter gene assay (Roche Applied Science) to detect SEAP production after treatment. To control for transfection efficiency, cell lysates were assayed for β-Gal using a commercially available kit (Promega).

[3] = system: RAGE ligand-independent activation of RAGE by activated AT1R; test: Ang II-induced NFκB activation (p65 gene expression, SEAP reporter) in AT1R-CHO cells with RAGE constructs; format: cell-based, human; details: construct expressed in AT1R-CHO cells, no wild-type RAGE
Description: as §3, §4, §1, §2
Oligopeptides (Cherry-TAT (control), mCherry-TAT-RAGE362-404 and mCherry-S391A-TAT-RAGE362-404 were generated by transformation of the Escherichia coli strain ClearColi BL21 (DE3; Lucigen). A single transformed colony was inoculated into 50 ml 2YT medium containing 100 μg/ml ampicillin and the culture was grown overnight at 37° C. with shaking at 250 rev/min. 10 ml overnight culture was used to inoculate 1 litre 2YT medium containing 100 μg/ml ampicillin and the culture was grown at 37° C. with shaking at 250 rev/min. When the cultures reached an OD600 of 0.8, the temperature was shifted to 15° C. for 30 min after which protein expression was induced by the addition of 1 mM isopropyl β-D-1-thiogalacto-pyranoside (IPTG). Following the addition of IPTG the cultures were grown for ˜16 h at 15° C. with shaking at 250 rev/min. Cells were harvested by centrifugation (3500 g, 4° C., 20 min) and resuspended in ice-cold lysis buffer (50 mM Tris pH 7.4, 300 mM NaCl, 10 mM imidazole and 5 mM beta-mercaptoethanol). The resuspended cells were sonicated and insoluble material was pelleted by centrifugation (13 000 g, 4° C., 30 min). The supernatant was filtered (0.2 μm) and applied onto a gravity-flow column with a 1 ml Ni-NTA Agarose resin bed volume (Qiagen) pre-equilibrated with lysis buffer. After the supernatant was passed over the resin, the column was washed with 100 ml of wash buffer (20 mM imidazole, 50 mM Tris pH 7.4, 150 mM NaCl, 5 mM beta-mercaptoethanol). His-tagged TAT-mCherry and TAT-mCherry-RAGE peptides were eluted from the resin using elution buffer (250 mM imidazole, 50 mM Tris pH 7.4, 150 mM NaCl, 5 mM beta-mercaptoethanol). […]

T1 sequence (Q62151 23-402): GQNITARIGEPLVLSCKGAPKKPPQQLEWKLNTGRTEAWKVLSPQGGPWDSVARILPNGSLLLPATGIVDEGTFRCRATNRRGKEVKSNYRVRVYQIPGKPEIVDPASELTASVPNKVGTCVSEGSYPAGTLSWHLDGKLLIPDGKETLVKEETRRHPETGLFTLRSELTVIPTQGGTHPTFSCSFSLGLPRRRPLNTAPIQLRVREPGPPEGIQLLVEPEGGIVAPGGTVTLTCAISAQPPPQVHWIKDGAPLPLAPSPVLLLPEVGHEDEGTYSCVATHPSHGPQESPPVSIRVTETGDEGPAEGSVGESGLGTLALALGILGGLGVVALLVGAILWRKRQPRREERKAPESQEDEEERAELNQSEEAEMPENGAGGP

Question: For “Q390A-RAGE370-390: glutamine-to-alanine mutant of RAGE370-390 (GEERKAPENQEEEEERAELNA; cytoplasmic region peptide; UniProt Q15109 370-390, looked up, variant Q390A)”, which “induction of ICAM-1 gene expression by Ang II” value (from here on “induction … by Ang II”) (RAGE) is on record?
Answer: lost

Question: With “soluble RAGE22-331: decoy receptor with ligand-binding affinity [reference compound]” as the molecule, how does the “inhibition of Ang II (1 μM)-induced ICAM-1, VCAM-1 and MCP-1” value ([1]; PMAEC from wild type mice) read?
Answer: do not inhibit

Question: And the “inhibition of S100A8/A9-induced ICAM-1” value ([1]; PMAEC from wild type mice)?
Answer: inhibit

Question: And the “inhibition of S100A8/A9-induced p65 expression” value ([2]; AT1R-CHO cells also expressing full length RAGE)?
Answer: inhibit

Question: How did the “ability of the RAGE construct to be activated and mediate pro-inflammatory signalling in response to Ang II” value [3] turn out when “RAGE385-404: N-truncated RAGE construct eliminating both 380 and 384 (RAELNQSEEPEAGESSTGGP; UniProt Q15109 385-404, looked up, fragment)” was run?
Answer: loss of the modulatory actions

Question: Which “induction … by Ang II” value (RAGE) does the source give for “E384A-RAGE370-390: alanine mutant of RAGE370-390 (GEERKAPENQEEEEARAELNQ; cytosolic tail peptide; UniProt Q15109 370-390, looked up, variant E384A)” here?
Answer: continue to inhibit

Question: How did the “induction … by Ang II” value (RAGE) turn out when “Q379A-RAGE370-390: glutamine-to-alanine mutant of RAGE370-390 (GEERKAPENAEEEEERAELNQ; cytosolic tail peptide; UniProt Q15109 370-390, looked up, variant Q379A)” was run?
Answer: lost

Question: For “RAGE379-404: N-truncated RAGE construct, functional substitute of wild type RAGE (QEEEEERAELNQSEEPEAGESSTGGP; UniProt Q15109 379-404, looked up, fragment)”, which “ability of the RAGE construct to be activated and mediate pro-inflammatory signalling in response to Ang II” value [3] is on record?
Answer: does not result in a loss of function; also recorded: able to be activated

Question: For “S391A-RAGE22-404: full length RAGE construct with S391 mutated to alanine”, which “induction … by Ang II” value (RAGE) is on record?
Answer: able to prevent

Question: With “m-Cherry-RAGE370-395: C-truncated S391X-RAGE mutant fused to mCherry (GEERKAPENQEEEEERAELNQSEEPE; also: mCherry fusion, not in chain; UniProt Q15109 370-395, looked up, fragment)” as the molecule, how does the “induction … by Ang II” value (RAGE) read?
Answer: prevents

Question: For “Q390K-RAGE370-390: glutamine-to-lysine mutant of RAGE370-390 (GEERKAPENQEEEEERAELNK; cytosolic tail peptide; UniProt Q15109 370-390, looked up, variant Q390K)”, which “induction … by Ang II” value (RAGE) is on record?
Answer: retain the greatest inhibitory effect

Question: “Q379K-RAGE370-390: glutamine-to-lysine mutant of RAGE370-390 (GEERKAPENKEEEEERAELNQ; cytoplasmic region peptide; UniProt Q15109 370-390, looked up, variant Q379K)” was tested. Which “induction … by Ang II” value (RAGE) did it give?
Answer: retain the greatest inhibitory effect

Question: TNFα was tested. Which “canonical and non-canonical signalling downstream of NFκB (CXCL2, CXCL12)” value ([1]; PMAEC from C57bl6 mice) did it give?
Answer: selectively induce canonical signalling

Question: How did the “induction … by Ang II” value (RAGE) turn out when “mCherry-S391A-RAGE362-404: N-truncated mCherry-RAGE cytosolic tail construct with S391A (LWQRRQRRGEERKAPENQEEEEERAELNQAEEPEAGESSTGGP; also: mCherry fusion; UniProt Q15109 362-404, looked up, fragment S391A)” was run?
Answer: able to prevent

Question: How did the “induction … by Ang II” value (RAGE) turn out when “E382A-RAGE370-390: alanine mutant of RAGE370-390 (GEERKAPENQEEAEERAELNQ; cytosolic tail peptide; UniProt Q15109 370-390, looked up, variant E382A)” was run?
Answer: continue to inhibit

Question: For “RAGE22-404: full length wild-type RAGE construct”, which “induction … by Ang II” value (RAGE) is on record?
Answer: does not affect

Question: “E380A-RAGE370-390: alanine mutant of RAGE370-390 (GEERKAPENQAEEEERAELNQ; cytosolic tail peptide; UniProt Q15109 370-390, looked up, variant E380A)” was tested. Which “induction … by Ang II” value (RAGE) did it give?
Answer: continue to inhibit

B1: S100A8/A9: RAGE ligand (protein)
chain 1: MLTELEKALNSIIDVYHKYSLIKGNFHAVYRDDLKKLLETECPQYIRKKGADVWFKELDINTDGAVNFQEFLILVIKMGVAAHKKSHEESHKE
chain 2: MTCKMSQLERNIETIINTFHQYSVKLGHPDTLNQGEFKELVRKDLQNFLKKENKNEKVIEHIMEDLDTNADKQLSFEEFIMLMARLTWASHEKMHEGDEGPGHHHKPGLGEGTP
Question: Which results are given for B1?
Answer: induction of pro-inflammatory genes ([1]; PMAEC from AGER KO mice): does not lead to the induction; expression of pro-inflammatory genes (ICAM-1, VCAM-1, TNFα, MCP-1) ([1]; PMAEC from C57bl6 mice, Ang II 1 μM or S100A8/A9): induction; NFκB-dependent induction of VCAM-1 gene expression ([1]; PMAEC with AGER expression silenced using siRNA): preventing; activation of p65-NFκB ([2]; CHO cells expressing the RAGE polypeptide, 5 ng/ml): able to induce activation
